Reference: patent publication US7387779B2, “Anti-angiogenic proteins and fragments and methods of use thereof” (Beth Israel Deaconess Medical Center, priority 1998, dated 2008)

Assays:
HEK 293 cells = experiment: Proliferation of control cells, 3H-thymidine incorporation; format: cell-based, human; details: Canstatin doses up to 40 mg/ml
Description: Bovine calf […] endothelial (C-PAE) cells were grown to confluence in DMEM with 10% fetal calf serum (FCS) and kept contact inhibited for 48 hours. Cells were harvested by trypsinization (Life Technologies/Gibco BRL, Gaithersberg, Md., USA) at 37° C. for 5 minutes. A suspension of 12,500 cells in DMEM with 0.5% FCS was added to each well of a 24-well plate coated with 10 μg/ml fibronectin. The cells were incubated for 24 hours at 37° C. C. with 5% CO2 and 95% humidity. Medium was removed, and replaced with DMEM containing 0.5% FCS (unstimulated) or 10% FCS (stimulated and treated cells). 786-O, PC-3 and HEK 293 cells served as controls and were also grown to confluency, trypsinized and plated in the same manner. Cells were treated with concentrations of Canstatin or endostatin ranging from 0.025 to 40 mg/ml in triplicate. In thymidine incorporation experiments, all wells received […] of ^3H-thymidine at the time of treatment. After 24 hours, medium was removed and the wells were washed 3 times with PBS. Radioactivity was extracted with 1N NaOH and added to a scintillation vial containing 4 ml of ScintiVerse II (Fisher Scientific, Pittsburgh, Pa., USA) solution. Thymidine incorporation was measured using a scintillation counter.

[1] = tested on: CD31-positive tumor vasculature; experiment: CD31 immunohistochemistry of xenograft tumors; details: mouse, in vivo
Description: Mice from the tumor studies were sacrificed after 10-20 days of treatment. Tumours were excised and fixed in 4% paraformaldehyde. Tissues were paraffin embedded and 3 μm sections were cut and mounted on glass slides. Sections were deparaffinized, rehydrated and treated with […] protease XXIV (SIGMA Chemical Co., St. Louis, Mo., USA) at 37° C. for 5 minutes. Digestion was stopped with 100% ethanol and sections were air dried and blocked with 10% rabbit serum. […]
CD31 immunostaining was used to determine the intra-tumoral microvessel density (MVD) in frozen histological sections of the PC-3 tumor xenografts, using a rat anti-mouse […] monoclonal antibody (PharMingen, San Diego, Calif., USA) with a standard streptavidin-biotin-peroxidase detection system (Vectastain ABC Elite Kit, Vector Labs, Burlingame, Calif., USA). […] MVD was assessed by scanning the tumor at low power magnification, then identifying three areas at the tumor periphery which contained the maximum number of discrete microvessels, and then counting individual microvessels on a 40× field. The mean microvessel density was compared among treatment groups and analyzed using the Student's t-test.

MDA-MB435 tumors = experiment: MDA-MB435 breast cancer carcinoma orthotopic model (Example 41); format: in vivo; details: 5 mg or 20 mg per kilogram
DU-145 cells = experiment: MTT cell viability assay; format: cell-based; details: 0-50 μg/ml
Description: Cell viability was measured by MTT assay, as described above.
The effects of Tumstatin-44-131 and Tum-5-125-C-A on cell viability of C-PAE cells were not seen in control PC-3 and DU-145 cells, as shown in FIGS. 52C and 52D. […] The activity of Tumstatin-44-131 is therefore specific to endothelial cells.

HPE cells = experiment: Proliferation, methylene blue staining; format: cell-based, human
Description: In the methylene-blue staining method, 7000 cells were plated into each well of a 96-well plate, and treated as described above. Cells were then counted using the method of Oliver et al. (1989, J. Cell. Sci. 92:513-8). After 48 hours of treatment, all wells were washed with 100 μl of PBS, and the cells fixed with 10% formalin in neutral-buffered saline (Sigma Chemical Co., St. Louis, Mo., USA). The cells were then stained with 1% methylene blue (Sigma) in 0.01M borate buffer, pH 8.5. Wells were washed with 0.01M borate buffer, and the methylene blue extracted from the cells with 0.1N HCl/ethanol, and the absorbance measured in a microplate reader (Bio-Rad, Hercules, Calif., USA) at 655 nm. Polymyxin B (Sigma) at a final concentration of 5 μg/ml was used to inactivate endotoxin (Liu, S. et al., 1997, Clin. Biochem. 30:455-63).
Endothelial cell proliferation was performed by ^3H-thymidine incorporation or methylene blue staining as described above in Example 25. C-PAE cells (passages 2-4) were grown to confluence and kept contact inhibited for 48 hours. 786-O, PC-3 and WM-164 cells were used as non-endothelial controls, and were cultured as described in Example 25, above. HPE (human primary prostate epithelial cells) were cultured in keratinocyte-SFM supplemented with bovine pituitary and recombinant human EGF (Life Technologies/Gibco BRL, Gaithersburg, Md., USA). […]

B1: Canstatin: NC1 domain of the α2 chain of Type IV collagen (SEQ ID NO:6) (protein, listed as Homo sapiens)
chain: VSIGYLLVKHSQTDQEPMCPVGMNKLWSGYSLLYFEGQEKAHNQDLGLAGSCLARFSTMPFLYCNPGDVCYYASRNDKSYWLSTTAPLPMMPVAEDEIKPYISRCSVCEAPAIAIAVHSQDVSIPHCPAGWRSLWIGYSFLMHTAAGDEGGGQSLVSPGSCLEDFRATPFIECNGGRGTCHYYANKYSFWLTTIPEQSFQGSPSADTLKAGLIRTHISRCQVCMKNL
HEK 293 cells
  effect on proliferation: No significant effect
[1]
  CD31 staining of tumor vasculature, treated vs control: decrease in CD31-positive vasculature

B2: Tum-1: residues 54 to 244 of Tumstatin, lacking the N-terminal 53 amino acids (SEQ ID NO:22) (protein)
chain: QRAHGQDLGTLGSCLQRFTTMPFLFCNVNDVCNFASRNDYSYWLSTPALMPMNMAPITGRALEPYISRCTVCEGPAIAIAVHSQTTDIPPCPHGWISLWKGFSFIMFTSAGSEGTGQALASPGSCLEEFRASPFLECHGRGTCNYYSNSYSFWLASLNPERMFRKPIPSTVKAGELEKIISRCQVCMKKRH
modifications: Tum-1 (Tumstatin N-53) (amino acids 54-244 of SEQ ID NO10)
MDA-MB435 tumors
  anti-tumor activity: substantial anti-tumor activity

B3: Tumstatin-44-131: residues 44 to 131 of full-length Tumstatin (SEQ ID NO:33) (protein)
chain: FSFLFVQGNQRAHGQDLGTLGSCLQRFTTMPFLFCNVNDVCNFASRNDYSYWLSTPALMPMNMAPITGRALEPYISRCTVCEGPAIAI
modifications: Tumstatin-45-132 (amino acids 45-132 of SEQ ID NO10)
DU-145 cells
  effect on viability of DU-145 cells: not seen

B4: Tumstatin: NC1 domain of the α3 chain of type IV collagen, residues 1-244 (SEQ ID NO:10) (protein, listed as Homo sapiens)
chain: GLKGKRGDSGSPATWTTRGFVFTRHSQTTAIPSCPEGTVPLYSGFSFLFVQGNQRAHGQDLGTLGSCLQRFTTMPFLFCNVNDVCNFASRNDYSYWLSTPALMPMNMAPITGRALEPYISRCTVCEGPAIAIAVHSQTTDIPPCPHGWISLWKGFSFIMFTSAGSEGTGQALASPGSCLEEFRASPFLECHGRGTCNYYSNSYSFWLASLNPERMFRKPIPSTVKAGELEKIISRCQVCMKKRH
HPE cells
  effect on proliferation of HPE cells: no inhibitory effects
